Positions count from the first letter of the chain named.

The text below walks through data of patent publication US20260209386A1 (MYTHIC THERAPEUTICS, published 2026).

T1: Human PTK7/CCK4 Protein, His Tag, Acro Biosystems PT7-H52H3 (human, UniProt Q13308 31-704)
T1 construct: bought protein; also called Human PTK7 Protein, His Tag, Acro Biosystems; not shown: His tag
T1 sequence: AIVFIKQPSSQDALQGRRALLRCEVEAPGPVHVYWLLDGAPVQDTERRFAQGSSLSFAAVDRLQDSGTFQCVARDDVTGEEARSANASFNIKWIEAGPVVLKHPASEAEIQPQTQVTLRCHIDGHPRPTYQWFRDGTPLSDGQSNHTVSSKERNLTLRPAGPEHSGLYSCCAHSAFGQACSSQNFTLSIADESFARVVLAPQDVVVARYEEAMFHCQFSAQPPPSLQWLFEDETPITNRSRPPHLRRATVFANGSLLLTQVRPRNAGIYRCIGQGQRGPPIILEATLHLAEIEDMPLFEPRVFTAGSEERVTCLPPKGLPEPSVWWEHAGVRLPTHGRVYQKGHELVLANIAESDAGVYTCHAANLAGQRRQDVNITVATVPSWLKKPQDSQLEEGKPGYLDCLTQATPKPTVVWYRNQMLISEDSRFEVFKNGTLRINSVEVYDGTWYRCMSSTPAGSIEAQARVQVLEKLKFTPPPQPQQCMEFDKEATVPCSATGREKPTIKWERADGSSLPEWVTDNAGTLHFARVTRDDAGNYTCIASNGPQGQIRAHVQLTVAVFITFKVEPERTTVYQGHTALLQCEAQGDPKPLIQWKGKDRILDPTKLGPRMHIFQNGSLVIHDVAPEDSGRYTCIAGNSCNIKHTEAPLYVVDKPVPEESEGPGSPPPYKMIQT

T2: Human PTK7 Protein, His Tag (Acro Biosystems) (human, UniProt Q13308 31-704)
T2 construct: Bought recombinant protein; also called CCK4; tyrosine-protein kinase-like 7; not shown: His tag
T2 sequence: T1 sequence

B1: MYT6184 (antibody, V domains shown)
VH: QVQLVQSGPEVKKPGASVKVSCKASGYTFTDYAVHWVRQAPGKRLEWIGVISTYNDYTYNNQDFKGRVTMTRDTSASTAYMELSRLRSEDTAVYYCARHNSYFYALDYWGQGTSVTVSS
VL: EIVLTQSPATLSLSPGERATLSCRASESVDSYGKSFMHWYQQKPGQAPRLLIYRASNLESGIPARFSGSGSGTDFTLTISSLEPEDFAVYYCQQSNEDPWTFGGGTKLEIK
notes: IgG
B2: MYT6210 (antibody, V domains shown)
VH: B1 VH with H99G
VL: B1 VL with A55H
notes: IgG
B3: MYT6206 (antibody, V domains shown)
VH: B1 VH with H99G
VL: B1 VL with F36H
notes: IgG
B4: MYT6221 (antibody, V domains shown)
VH: B1 VH with H99G
VL: B1 VL with D98H
notes: IgG
B5: MYT6209 (antibody, V domains shown)
VH: B1 VH with H99G
VL: B1 VL with R54H
notes: IgG
B6: MYT6190 (antibody, V domains shown)
VH: B1 VH with H99G, A105H
VL: B1 VL
notes: IgG
B7: MYT6186 (antibody, V domains shown)
VH: B1 VH with H99G, S101H
VL: B1 VL
notes: IgG
B8: MYT6218 (antibody, V domains shown)
VH: B1 VH with H99G
VL: B1 VL with S95H
notes: IgG
B9: MYT6231 (antibody, V domains shown)
VH: QVQLVESGGGVVQPGRSLRLSCAASGFTFSSHGMHWVRQAPGKGLEWVAVIWDDGSNKYYVDSVKGRFTISRDNSKNTLYLQMNSLRAEDTAVYYCARDDYYGSGSFNSYYGTDVWGQGTTVTVSS
VL: EIVLTQSPATLSLSPGERATLSCRASQSVSIYLAWYQQKPGQAPRLLIYDASNRATGIPARFSGSGSGTDFTLTISSLEPEDFAVYYCQQRSNWPPFTFGPGTKVDIK
notes: IgG
B10: MYT6255 (antibody, V domains shown)
VH: B9 VH with H32Y, D100H
VL: B9 VL
notes: IgG
B11: MYT6253 (antibody, V domains shown)
VH: B9 VH with H32Y, R98H
VL: B9 VL
notes: IgG
B12: MYT6267 (antibody, V domains shown)
VH: B9 VH with H32Y, G112H
VL: B9 VL
notes: IgG
B13: MYT6256 (antibody, V domains shown)
VH: B9 VH with H32Y, Y101H
VL: B9 VL
notes: IgG
B14: MYT6268 (antibody, V domains shown)
VH: B9 VH with H32Y, T113H
VL: B9 VL
notes: IgG
B15: MYT6269 (antibody, V domains shown)
VH: B9 VH with H32Y, D114H
VL: B9 VL
notes: IgG
B16: MYT6254 (antibody, V domains shown)
VH: B9 VH with H32Y, D99H
VL: B9 VL
notes: IgG
B17: MYT6232 (antibody, V domains shown)
VH: B9 VH with H32Y, G33H
VL: B9 VL
notes: IgG
B18: MYT6244 (antibody, V domains shown)
VH: B9 VH with H32Y, Y59H
VL: B9 VL
notes: IgG
B19: MYT11349 (antibody, V domains shown)
VH: EVQLVESGGGLVQPGGSLRLSCTASGIDLSNYAVIWVRQAPGKGLEWVGHIYTYDTTYYANWAKGRFTISRDTSKNTVYLQMNSLRAEDTAVYFCARSFSDISDLIKLWGQGTLVTVSS
VL: EIVMTQSPSTLSASVGDRVIITCQASQSLYNNKDLAWYQQKPGKAPKLLIYEASKLASGVPSRFSGSGSGAEFTLTISSLQPDDFATYYCLGEFSCGSGDCLAFGQGTKLTVL
notes: MYT9797 HC variant; captured via anti-human Fc
B20: MYT11392 (antibody, V domains shown)
VH: B19 VH with H50I
VL: B19 VL with K33H
notes: MYT9797 LC variant; captured via anti-human Fc
B21: MYT11376 (antibody, V domains shown)
VH: B19 VH with H50I, K107H
VL: B19 VL
notes: as for B19
B22: MYT11396 (antibody, V domains shown)
VH: B19 VH with H50I
VL: B19 VL with E52H
notes: as for B20
B23: MYT11369 (antibody, V domains shown)
VH: B19 VH with H50I, S100H
VL: B19 VL
notes: as for B19
B24: MYT11390 (antibody, V domains shown)
VH: B19 VH with H50I
VL: B19 VL with N31H
notes: as for B20
B25: MYT11352 (antibody, V domains shown)
VH: B19 VH with H50I, T53H
VL: B19 VL
notes: as for B19
B26: MYT11380 (antibody, V domains shown)
VH: B19 VH with H50I, D55A
VL: B19 VL
notes: MYT9797 HC alanine variant; captured via anti-human Fc
B27: MYT11355 (antibody, V domains shown)
VH: B19 VH with H50I, T56H
VL: B19 VL
notes: as for B19
B28: MYT11357 (antibody, V domains shown)
VH: B19 VH with H50I, Y58H
VL: B19 VL
notes: as for B19
B29: MYT11393 (antibody, V domains shown)
VH: B19 VH with H50I
VL: B19 VL with D34H
notes: as for B20
B30: MYT11354 (antibody, V domains shown)
VH: B19 VH with H50I, D55H
VL: B19 VL
notes: as for B19
B31: MYT11394 (antibody, V domains shown)
VH: B19 VH with H50I
VL: B19 VL with L35H
notes: as for B20
B32: MYT11398 (antibody, V domains shown)
VH: B19 VH with H50I
VL: B19 VL with S54H
notes: as for B20
B33: MYT11363 (antibody, V domains shown)
VH: B19 VH with H50I, K64H
VL: B19 VL
notes: as for B19
B34: MYT11356 (antibody, V domains shown)
VH: B19 VH with H50I, T57H
VL: B19 VL
notes: as for B19

The first assay addresses T1, Human PTK7/CCK4 Protein, His Tag, Acro …. Kind of assay: BLI, antibody on anti-human Fc sensor. (In general: In BLI a coated tip is dipped into the sample, and binding shifts an interference pattern.)
B1: the binding result is on record as “no binding (tested: 50 nM PTK7)”.

On to B2, for which the binding result is “no binding (tested: 50 nM PTK7)”.

For the molecule B3, the binding result is given as “no binding (tested: 50 nM PTK7)”.

Regarding B4, the binding result was “no binding (tested: 50 nM PTK7)”.

Consider B5, for which the binding result is reported as “no binding (tested: 50 nM PTK7)”.

With B6, the binding result is given as “no binding (tested: 50 nM PTK7)”.

On to B7, for which the binding result is reported as “no binding (tested: 50 nM PTK7)”.

On to B8, for which the binding result is given as “no binding (tested: 50 nM PTK7)”.

B9: the binding result is given as “no binding (tested: 50 nM PTK7)”.

B10: the binding result is listed as “no binding (tested: 50 nM PTK7)”.

For B11, the binding result is “no binding (tested: 50 nM PTK7)”.

Consider B12, for which the binding result is “no binding (tested: 50 nM PTK7)”.

For B13, the binding result is reported as “no binding (tested: 50 nM PTK7)”.

As for B14, the binding result is reported as “no binding (tested: 50 nM PTK7)”.

As to B15, the binding result is “no binding (tested: 50 nM PTK7)”.

Turning to B16, the binding result was “no binding (tested: 50 nM PTK7)”.

Take B17: the binding result is “no binding (tested: 50 nM PTK7)”.

As for B18, the binding result is listed as “no binding (tested: 50 nM PTK7)”.

The target of the next assay is T2, Human PTK7 Protein, His Tag (Acro …). Kind of assay: BLI, antibody on anti-human Fc sensor, 50 nM PTK7 at pH 7.4, dissociation at pH 7.4 or 5.4; 1 = pH dependent binding relative to parent.
Take B19: the binding result is given as “binds”.

For the molecule B20, the binding result is recorded as “binds”.

In the case of B21, the binding result was “binds”.

For the molecule B22, the binding result was “binds”.

B23: the binding result is given as “binds”.

For B24, the binding result is listed as “binds”.

With B25, the binding result is “binds”.

B26: the binding result is “binds”.

Turning to B27, the binding result is “binds”.

In the case of B28, the binding result is reported as “binds”.

Consider B29, for which the binding result is on record as “binds”.

For B30, the binding result is “binds”.

As to B31, the binding result was “binds”.

Turning to B32, the binding result is “binds”.

B33: the binding result was “binds”.

As to B34, the binding result is on record as “binds”.
